The results in this text go back to patent US20180230200A1 (CITY OF HOPE, published 2018).

In experiment [1] the target is T1, UL131A expressed from MVA in BHK-21 cells (human cytomegalovirus, UniProt F5HET4 19-129).
T1 construct: whole, on cells
Kind of experiment: intracellular FC, MVA-infected BHK-21.

In experiment [2] the target is T2, UL128/UL130/UL131A co-expressed from MVA in BHK-21 cells (human cytomegalovirus, UniProt P16837 28-171; P16772 1-214; F5HET4 19-129).
T2 construct: whole, on cells
Kind of experiment: intracellular FC, MVA-infected BHK-21.

Experiment [3] deals with T3, UL128/UL131A co-expressed from MVA in BHK-21 cells (human cytomegalovirus, UniProt P16837 28-171; F5HET4 19-129).
T3 construct: whole, on cells
The experiment is described as follows: intracellular FC, MVA-infected BHK-21.

Experiment [4] concerns the target T4, UL130/UL131A co-expressed from MVA in BHK-21 cells (human cytomegalovirus, UniProt P16772 1-214; F5HET4 19-129).
T4 construct: whole, on cells
Kind of experiment: intracellular FC, MVA-infected BHK-21.

Experiment [5] has as its target T5, UL128 expressed from MVA in BHK-21 cells (human cytomegalovirus, UniProt P16837 28-171).
T5 construct: whole, on cells
T5 sequence: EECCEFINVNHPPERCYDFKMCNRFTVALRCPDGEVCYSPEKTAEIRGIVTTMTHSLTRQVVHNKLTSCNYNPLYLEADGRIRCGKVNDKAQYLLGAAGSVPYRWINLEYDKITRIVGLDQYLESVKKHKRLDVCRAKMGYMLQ
Kind of experiment: intracellular FC, MVA-infected BHK-21.

Experiment [6] deals with T6, UL128/UL130 co-expressed from MVA in BHK-21 cells (human cytomegalovirus, UniProt P16837 28-171; P16772 1-214).
T6 construct: whole, on cells
Kind of experiment: intracellular FC, MVA-infected BHK-21.

Experiment [7] concerns the target T7, gH/gL/UL128/UL130/UL131A pentamer complex expressed from MVA-PC in BHK-21 cells (human cytomegalovirus, UniProt P12824 24-743; P16832 31-278; P16837 28-171; P16772 1-214; F5HET4 19-129).
T7 construct: whole, on cells
Kind of experiment: FC competition, MVA-PC BHK-21; unlabelled row Ab; competitor: biotinylated 2-80. Further: test concentration or dose not given here.

B1: 18F10 (antibody, V domains shown)
VH: QVTLKESGPGILQPSQTLSLTCSFSGFSLSTYGIGIGWIRQPSGKGLEWLAHIWWNDNKNYNTALKSRLTISKDPSNNQVFLKIASVDTADTATYFCARTGYFDVWGAGTTVTVSS
VL: DVVLTQTPLSLPVSLGDQVSISCSSSQSLVHSNGNTYIHWYLQKPGQSPKLLIYTVSNRFSGVPDRFSGSGSGTDFTLKISRVEAEDLGLYFCSQSTHVPYTFGGGTKLEIK
notes: also called NAb 18F10
B1: the binding result in experiment [1], in experiment [2], in experiment [3], in experiment [4], in experiment [5] and in experiment [6] was “no binding” in each case. The “Binding Inhibition (%)” value in experiment [7] worked out at 0%.
